{"source": "patent US6875741", "about": "(Novo Nordisk, dated 2005)", "data": [{"target": "T1, soluble human insulin receptor-immunoglobulin heavy chain chimera (human, UniProt P06213 28-956)", "T1 construct": "extracellular domain; Heterotetramer; also called IR; sIR-Fc; not shown: immunoglobulin heavy chain constant domains replacing the transmembrane and intr", "assay": "phage ELISA ratios compared", "values": [{"binder": "QFYGCLLDLSLGVPSFGWRRRCITA", "note": "[20C-3-A4-IGFR]", "IR/IGF-1R ratio comparison": 0.1}, {"binder": "NSRDGGFYLQLERLLGFPVTG", "note": "[20E2B-3-D4-IGFR]", "IR/IGF-1R ratio comparison": 0.1}, {"binder": "GFREGNFYEWFQAQVT", "note": "[E4Dα-4-H2-IR]", "IR/IGF-1R ratio comparison": 0.2}, {"binder": "EGSGFYGYFFSLLGLQG", "note": "[NNRPγ-4-A9-IR]", "IR/IGF-1R ratio comparison": 0.1}, {"binder": "FRTLAAQHDSFYDWFDRQVSGAAGER", "note": "[H2CA-3-C11-IGFR]", "IR/IGF-1R ratio comparison": 0.5}, {"binder": "VEGRGLFYDLLRQLLARRQNG", "note": "[20E2B-3-C6-IGFR]", "IR/IGF-1R ratio comparison": 0.1}, {"binder": "PGTDLGFYQALRCVVIQGACD", "note": "[20E2B-2-B2-IGFR]", "IR/IGF-1R ratio comparison": 0.1}, {"binder": "KLHNLMFYYGLQRLVWGAGLG", "note": "[20E2B-4-H3-IGFR]", "IR/IGF-1R ratio comparison": 0.1}, {"binder": "SSIGGGFHENFYDWFSRQLSQSPPLK", "note": "[H2CA-4-F7-IGFR]", "IR/IGF-1R ratio comparison": 0.2}, {"binder": "ASSASGFYELLQRLAGLGLEV", "note": "[20E2B-3-C4-IGFR]", "IR/IGF-1R ratio comparison": 0.2}, {"binder": "AICDAGFHEHFYDWFALQVSDCGRQS", "note": "[H2CA-2-B11-IGFR]", "IR/IGF-1R ratio comparison": 0.3}, {"binder": "LGYQEPFQQNFYDWFVRQVSGAENAG", "note": "[H2CA-3-E8-IGFR]", "IR/IGF-1R ratio comparison": 0.3}, {"binder": "RLFYCGIQALGANLGYSGCV", "note": "[R20α-4-20A12-IR]", "IR/IGF-1R ratio comparison": 0.1}, {"binder": "ICTGQGFYQVLCGLLRGTSAR", "note": "[20E2B-2-B3-IGFR]", "IR/IGF-1R ratio comparison": 0.1}, {"binder": "VATSQGFYSGLSELLQGGGNV", "note": "[20E2B-3-E12-IGFR]", "IR/IGF-1R ratio comparison": 0.1}, {"binder": "GAPVDQLHEDFYDWFVRQVSQAATG", "note": "[H2CA-2-B2-IGFR]", "IR/IGF-1R ratio comparison": 0.3}, {"binder": "FYVQQWGHENFYDWFDRQVSQSGGAG", "note": "[H2CA-4-F1-IGFR]", "IR/IGF-1R ratio comparison": 0.3}, {"binder": "RCGRELYHSTFYDWFDRQVAGRTCPS", "note": "[H2CA-1-A7-IGFR]", "IR/IGF-1R ratio comparison": 0.3}, {"binder": "LRRQAPVEENFYDWFVRQVSGDRVGG", "note": "[H2CA-3-D7-IGFR]", "IR/IGF-1R ratio comparison": 0.3}, {"binder": "GFREGSFYDWFQAQVT", "note": "[E4Dα-2-D11-IR]", "IR/IGF-1R ratio comparison": 0.3}, {"binder": "AQPCGGFYGLLEQLVGRSVCD", "note": "[20E2B-4-F10-IGFR]", "IR/IGF-1R ratio comparison": 0.1}, {"binder": "QAVQPGFHEEFYDWFVRQVSTGVGGG", "note": "[H2CA-4-H4-IGFR]", "IR/IGF-1R ratio comparison": 0.2}, {"binder": "TLDGGSFEEQFYDWFVRQLSYRTNPD", "note": "[H2CA-4-G11-IGFR]", "IR/IGF-1R ratio comparison": 0.3}, {"binder": "TSEVQRRSQDNFYDWFVAQVA", "note": "[A6S-3-E2-IR]", "IR/IGF-1R ratio comparison": 0.4}, {"binder": "QGNVLDFYGWIGRLLAKQGSD", "note": "[20E2B-3-D12-IGFR]", "IR/IGF-1R ratio comparison": 0.1}, {"binder": "PDLHKGFYAQLAQLIRGQLLS", "note": "[20E2B-3-E3-IGFR]", "IR/IGF-1R ratio comparison": 0.1}]}, {"target": "T2, Soluble IGF-1R (R&D Systems, Cat. # 391-GR) (UniProt P08069 31-935, limits assumed)", "T2 construct": "extracellular domain; bought; also called sIGF-1R", "assay": "phage ELISA ratios compared", "values": [{"binder": "QFYGCLLDLSLGVPSFGWRRRCITA", "note": "[20C-3-A4-IGFR]", "IGF-1R/IR ratio comparison": 7.6}, {"binder": "NSRDGGFYLQLERLLGFPVTG", "note": "[20E2B-3-D4-IGFR]", "IGF-1R/IR ratio comparison": 9.6}, {"binder": "GFREGNFYEWFQAQVT", "note": "[E4Dα-4-H2-IR]", "IGF-1R/IR ratio comparison": 4.1}, {"binder": "EGSGFYGYFFSLLGLQG", "note": "[NNRPγ-4-A9-IR]", "IGF-1R/IR ratio comparison": 7.1}, {"binder": "FRTLAAQHDSFYDWFDRQVSGAAGER", "note": "[H2CA-3-C11-IGFR]", "IGF-1R/IR ratio comparison": 2.1}, {"binder": "VEGRGLFYDLLRQLLARRQNG", "note": "[20E2B-3-C6-IGFR]", "IGF-1R/IR ratio comparison": 14.8}, {"binder": "PGTDLGFYQALRCVVIQGACD", "note": "[20E2B-2-B2-IGFR]", "IGF-1R/IR ratio comparison": 8.1}, {"binder": "KLHNLMFYYGLQRLVWGAGLG", "note": "[20E2B-4-H3-IGFR]", "IGF-1R/IR ratio comparison": 13.9}, {"binder": "SSIGGGFHENFYDWFSRQLSQSPPLK", "note": "[H2CA-4-F7-IGFR]", "IGF-1R/IR ratio comparison": 4.1}, {"binder": "ASSASGFYELLQRLAGLGLEV", "note": "[20E2B-3-C4-IGFR]", "IGF-1R/IR ratio comparison": 6.2}, {"binder": "AICDAGFHEHFYDWFALQVSDCGRQS", "note": "[H2CA-2-B11-IGFR]", "IGF-1R/IR ratio comparison": 3}, {"binder": "LGYQEPFQQNFYDWFVRQVSGAENAG", "note": "[H2CA-3-E8-IGFR]", "IGF-1R/IR ratio comparison": 2.9}, {"binder": "RLFYCGIQALGANLGYSGCV", "note": "[R20α-4-20A12-IR]", "IGF-1R/IR ratio comparison": 16.6}, {"binder": "ICTGQGFYQVLCGLLRGTSAR", "note": "[20E2B-2-B3-IGFR]", "IGF-1R/IR ratio comparison": 7.4}, {"binder": "VATSQGFYSGLSELLQGGGNV", "note": "[20E2B-3-E12-IGFR]", "IGF-1R/IR ratio comparison": 7.3}, {"binder": "GAPVDQLHEDFYDWFVRQVSQAATG", "note": "[H2CA-2-B2-IGFR]", "IGF-1R/IR ratio comparison": 3.5}, {"binder": "FYVQQWGHENFYDWFDRQVSQSGGAG", "note": "[H2CA-4-F1-IGFR]", "IGF-1R/IR ratio comparison": 3.8}, {"binder": "RCGRELYHSTFYDWFDRQVAGRTCPS", "note": "[H2CA-1-A7-IGFR]", "IGF-1R/IR ratio comparison": 3.7}, {"binder": "LRRQAPVEENFYDWFVRQVSGDRVGG", "note": "[H2CA-3-D7-IGFR]", "IGF-1R/IR ratio comparison": 3.7}, {"binder": "GFREGSFYDWFQAQVT", "note": "[E4Dα-2-D11-IR]", "IGF-1R/IR ratio comparison": 3.4}, {"binder": "AQPCGGFYGLLEQLVGRSVCD", "note": "[20E2B-4-F10-IGFR]", "IGF-1R/IR ratio comparison": 7.8}, {"binder": "QAVQPGFHEEFYDWFVRQVSTGVGGG", "note": "[H2CA-4-H4-IGFR]", "IGF-1R/IR ratio comparison": 4.2}, {"binder": "TLDGGSFEEQFYDWFVRQLSYRTNPD", "note": "[H2CA-4-G11-IGFR]", "IGF-1R/IR ratio comparison": 3.9}, {"binder": "TSEVQRRSQDNFYDWFVAQVA", "note": "[A6S-3-E2-IR]", "IGF-1R/IR ratio comparison": 2.5}, {"binder": "QGNVLDFYGWIGRLLAKQGSD", "note": "[20E2B-3-D12-IGFR]", "IGF-1R/IR ratio comparison": 7.3}, {"binder": "PDLHKGFYAQLAQLIRGQLLS", "note": "[20E2B-3-E3-IGFR]", "IGF-1R/IR ratio comparison": 13.1}]}]}
